Measurements as given in article doi:10.1101/2021.12.21.473721 (bioRxiv, 2021).

Target: the molecule itself
Assay: SEC

B1: bacteriophage MS2 coat protein, wildtype (MS2[WT]) (natural protein)
chain: ASNFTQFVLVDNGGTGDVTVAPSNFANGVAEWISSNSRSQAYKVTCSVRQSSAQNRKYTIKVEVPKVATQTVGGVELPVAAWRSYLNMELTIPIFATNSDCELIVKAMQGLLKDGNPIPSAIAANSGIY
B1: binds.
